This passage reports EC50 (read off the curve) and EC50 results from US20240190939A1.

For orientation: EC50 (read off the curve) means the midpoint of the concentration-response curve. One may read the EC50 as the concentration giving half of the maximal effect. Low values mean an effect from little substance, high ones a need for much substance.

Assay [1] concerns the target CD155PVR-His. The assay is described as follows: ELISA: CD155-His capture, IgG detection. (ELISA stands for enzyme-linked immunosorbent assay.)
For assay [2], the target named is mouse LTbR on CHO-K1 cells (mouse) (UniProt P50284). Put plainly: flow cytometry on CHO-K1 cells expressing murine LTbR.
Assay [3] has as its target CD155PVR-His. Put plainly: ELISA: 'CD115/PVR Capture' as printed (legend: CD155PVR-His), Fc-HRP detection.
Assay [4] concerns the target recombinant CD155. The assay is described as follows: ELISA: CD155/PVR capture, Fc-HRP detection.
Assay [5] has as its target CD47-His. The assay is described as follows: ELISA: hCD47 His capture, IgG HRP detection.
For assay [6], the target named is mouse LTbR on CHO-K1 cells (mouse) (UniProt P50284). The assay is described as follows: flow cytometry on CHO-K1 cells expressing murine LTbR (the sentence names the second value 'for mCD172a(SIRPα)'). A general note: Flow cytometry measures light scatter and fluorescence of single cells or particles in a stream.

Chain of mouse LTbR on CHO-K1 cells (mouse) (P50284 31-415): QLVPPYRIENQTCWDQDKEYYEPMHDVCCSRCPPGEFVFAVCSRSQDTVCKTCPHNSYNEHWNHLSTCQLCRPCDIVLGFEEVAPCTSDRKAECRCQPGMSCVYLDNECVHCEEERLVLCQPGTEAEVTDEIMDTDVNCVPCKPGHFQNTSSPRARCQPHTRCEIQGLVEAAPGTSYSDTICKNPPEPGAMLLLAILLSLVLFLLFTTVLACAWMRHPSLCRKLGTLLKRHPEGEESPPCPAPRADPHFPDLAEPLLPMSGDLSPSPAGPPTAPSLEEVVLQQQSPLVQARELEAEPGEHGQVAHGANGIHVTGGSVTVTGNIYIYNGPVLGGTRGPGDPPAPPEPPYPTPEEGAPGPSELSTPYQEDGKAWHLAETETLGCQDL
Chain of CD47-His (Q61735 19-140): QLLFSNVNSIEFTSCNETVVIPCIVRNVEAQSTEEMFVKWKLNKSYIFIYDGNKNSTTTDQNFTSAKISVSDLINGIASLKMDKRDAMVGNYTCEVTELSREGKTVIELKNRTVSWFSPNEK

TIGIT-Fc Std (Fc fusion) displayed an EC50 (read off the curve) in assay [1] of 0.07 nM.
In turn, “murine TIGIT-Fc-LIGHT chimeric protein (from UniProt P86176 29-148) (Fc fusion)” had a 50% effective concentration (EC50) in assay [2] of 11 nM.
In the case of TIGIT Std (receptor), the EC50 (read off the curve) in assay [3] and in assay [4] was 10 nM in each case.
As for SIRPa-Fc Std (Fc fusion), the EC50 (read off the curve) in assay [5] came out at 0.3 nM.
With “murine CD172a(SIRPα)-Fc-LIGHT chimeric protein (from UniProt P97797 32-373) (Fc fusion)”, the EC50 in assay [6] is 24 nM.
